{"source": "paper PMC10202959", "about": "“A superior extracellular matrix binding motif to enhance the regenerative activity and safety of therapeutic proteins” (NPJ Regenerative Medicine, 2023)", "binders": {"B1": {"name": "placenta growth factor-2 (natural protein, human, UniProt P49763-3 19-170, looked up)", "chain": "LPAVPPQQWALSAGNGSSEVEVVPFQEVWGRSYCRALERLVDVVSEYPSEVEHMFSPSCVSLLRCTGCCGDENLHCVPVETANVTMQLLKIRSGDRPSYVELTFSQHVRCECRPLREKMKPERRRPKGRGKRRREKQRPTDCHLCGDAVPRR", "notes": "placenta growth factor, PlGF-2; also called PlGF; PlGF-2; source: bought: Peprotech (carrier-free recombinant)"}, "B2": {"name": "neurturin (natural protein, human, UniProt Q99748 96-197, looked up)", "chain": "ARLGARPCGLRELEVRVSELGLGYASDETVLFRYCAGACEAAARVYDLGLRRLRQRRRLRRERVRAQPCCRPTAYEDEVSFLDAHSRYHTVHELSARECACV", "notes": "neurturin; also called NRTN; source: bought: Peprotech (carrier-free recombinant)"}, "B3": {"name": "platelet-derived growth factor-BB (wild type) (natural protein, UniProt P31240 82-190, looked up)", "chain": "SLGSLAAAEPAVIAECKTRTEVFQISRNLIDRTNANFLVWPPCVEVQRCSGCCNNRNVQCRASQVQMRPVQVRKIEIVRKKPIFKKATVTLEDHLACKCETIVTPRPVT", "notes": "platelet-derived growth factor subunit B; also called PDGF-BB; source: bought: Peprotech"}, "B4": {"name": "human fibrinogen (complex)", "chain 1": "ADSGEGDFLAEGGGVRGPRVVERHQSACKDSDWPFCSDEDWNYKCPSGCRMKGLIDEVNQDFTNRINKLKNSLFEYQKNNKDSHSLTTNIMEILRGDFSSANNRDNTYNRVSEDLRSRIEVLKRKVIEKVQHIQLLQKNVRAQLVDMKRLEVDIDIKIRSCRGSCSRALAREVDLKDYEDQQKQLEQVIAKDLLPSRDRQHLPLIKMKPVPDLVPGNFKSQLQKVPPEWKALTDMPQMRMELERPGGNEITRGGSTSYGTGSETESPRNPSSAGSWNSGSSGPGSTGNRNPGSSGTGGTATWKPGSSGPGSTGSWNSGSSGTGSTGNQNPGSPRPGSTGTWNPGSSERGSAGHWTSESSVSGSTGQWHSESGSFRPDSPGSGNARPNNPDWGTFEEVSGNVSPGTRREYHTEKLVTSKGDKELRTGKEKVTSGSTTTTRRSCSKTVTKTVIGPDGHKEVTKEVVTSEDGSDCPEAMDLGTLSGIGTLDGFRHRHPDEAAFFDTASTGKTFPGFFSPMLGEFVSETESRGSESGIFTNTKESSSHHPGIAEFPSRGKSSSYSKQFTSSTSYNRGDSTFESKSYKMADEAGSEADHEGTHSTKRGHAKSRPV", "chain 2": "QGVNDNEEGFFSARGHRPLDKKREEAPSLRPAPPPISGGGYRARPAKAAATQKKVERKAPDAGGCLHADPDLGVLCPTGCQLQEALLQQERPIRNSVDELNNNVEAVSQTSSSSFQYMYLLKDLWQKRQKQVKDNENVVNEYSSELEKHQLYIDETVNSNIPTNLRVLRSILENLRSKIQKLESDVSAQMEYCRTPCTVSCNIPVVSGKECEEIIRKGGETSEMYLIQPDSSVKPYRVYCDMNTENGGWTVIQNRQDGSVDFGRKWDPYKQGFGNVATNTDGKNYCGLPGEYWLGNDKISQLTRMGPTELLIEMEDWKGDKVKAHYGGFTVQNEANKYQISVNKYRGTAGNALMDGASQLMGENRTMTIHNGMFFSTYDRDNDGWLTSDPRKQCSKEDGGGWWYNRCHAANPNGRYYWGGQYTWDMAKHGTDDGVVWMNWKGSWYSMRKMSMKIRPFFPQQ", "chain 3": "YVATRDNCCILDERFGSYCPTTCGIADFLSTYQTKVDKDLQSLEDILHQVENKTSEVKQLIKAIQLTYNPDESSKPNMIDAATLKSRKMLEEIMKYEASILTHDSSIRYLQEIYNSNNQKIVNLKEKVAQLEAQCQEPCKDTVQIHDITGKDCQDIANKGAKQSGLYFIKPLKANQQFLVYCEIDGSGNGWTVFQKRLDGSVDFKKNWIQYKEGFGHLSPTGTTEFWLGNEKIHLISTQSAIPYALRVELEDWNGRTSTADYAMFKVGPEADKYRLTYAYFAGGDAGDAFDGFDFGDDPSDKFFTSHNGMQFSTWDNDNDKFEGNCAEQDGSGWWMNKCHAGHLNGVYYQGGTYSKASTPNGYDNGIIWATWKTRWYSMKKTTMKIIPFNRLTIGEGQQHHLGGAKQAGDV", "modifications": "Plasma-derived disulfide-linked hexamer (alpha-beta-gamma)2, fibrinopeptides A and B retained, N-glycosylated. Isoforms are not printed: the major plasma forms are taken by convention, i.e. the …"}, "B5": {"name": "interleukin-1 receptor antagonist (wild type) (natural protein, UniProt P25085 27-178, looked up)", "chain": "RPSGKRPCKMQAFRIWDTNQKTFYLRNNQLIAGYLQGPNIKLEEKIDMVPIDLHSVFLGIHGGKLCLSCAKSGDDIKLQLEEVNITDLSKNKEEDKRFTFIRSEKGPTTSFESAACPGWFLCTTLEADRPVSLTNTPEEPLIVTKFYFQEDQ", "notes": "interleukin-1 receptor antagonist protein; also called IL-1Ra; source: bought: Peprotech"}, "B6": {"name": "amphiregulin (natural protein, human, UniProt P15514 101-187, looked up)", "chain": "SVRVEQVVKPPQNKTESENTSDKPKRKKKGGKNGKNRRNRKKKNPCNAEFQNFCIHGECKYIEHLEAVTCKCQQEYFGERCGEKSMK", "notes": "amphiregulin; it is a soluble form, not the 252 aa precursor (surmise); also called AREG; source: bought: Peprotech (carrier-free recombinant)"}}, "conditions_in_all_cases": "both partners purified", "key": {"human vitronectin [1]": {"target": "T1, human vitronectin (human, UniProt P04004 20-478)", "T1 construct": "vitronectin, human; source: bought: Peprotech", "T1 sequence (P04004 20-478)": "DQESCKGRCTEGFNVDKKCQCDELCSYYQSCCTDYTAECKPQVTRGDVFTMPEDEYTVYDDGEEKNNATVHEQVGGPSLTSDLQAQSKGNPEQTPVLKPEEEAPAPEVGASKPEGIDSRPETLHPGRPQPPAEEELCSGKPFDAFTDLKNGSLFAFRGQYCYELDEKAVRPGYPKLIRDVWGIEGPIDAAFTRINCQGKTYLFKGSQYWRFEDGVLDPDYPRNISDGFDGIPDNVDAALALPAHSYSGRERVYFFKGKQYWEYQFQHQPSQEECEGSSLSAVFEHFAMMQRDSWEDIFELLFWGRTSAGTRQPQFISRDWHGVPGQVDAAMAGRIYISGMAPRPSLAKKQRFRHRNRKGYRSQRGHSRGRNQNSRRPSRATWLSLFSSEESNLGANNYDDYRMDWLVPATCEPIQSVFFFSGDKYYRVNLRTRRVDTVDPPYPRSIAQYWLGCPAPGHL", "test": "ELISA; plates coated with 100 nM PlGF-2, AREG or NRTN (1 h, 37 °C), blocked with 1% BSA in PBS-T; ECM proteins at increasing concentration in PBS-T with 0.1% BSA; bound ECM protein detected with HRP-conjugated antibodies; one site specific binding model; n = 3"}, "human tenascin C [2]": {"target": "T2, human tenascin C (human, UniProt P24821 23-2201)", "T2 construct": "tenascin C, human; also called Tenacin C; source: bought: R&D Systems", "T2 sequence (P24821 23-2201)": "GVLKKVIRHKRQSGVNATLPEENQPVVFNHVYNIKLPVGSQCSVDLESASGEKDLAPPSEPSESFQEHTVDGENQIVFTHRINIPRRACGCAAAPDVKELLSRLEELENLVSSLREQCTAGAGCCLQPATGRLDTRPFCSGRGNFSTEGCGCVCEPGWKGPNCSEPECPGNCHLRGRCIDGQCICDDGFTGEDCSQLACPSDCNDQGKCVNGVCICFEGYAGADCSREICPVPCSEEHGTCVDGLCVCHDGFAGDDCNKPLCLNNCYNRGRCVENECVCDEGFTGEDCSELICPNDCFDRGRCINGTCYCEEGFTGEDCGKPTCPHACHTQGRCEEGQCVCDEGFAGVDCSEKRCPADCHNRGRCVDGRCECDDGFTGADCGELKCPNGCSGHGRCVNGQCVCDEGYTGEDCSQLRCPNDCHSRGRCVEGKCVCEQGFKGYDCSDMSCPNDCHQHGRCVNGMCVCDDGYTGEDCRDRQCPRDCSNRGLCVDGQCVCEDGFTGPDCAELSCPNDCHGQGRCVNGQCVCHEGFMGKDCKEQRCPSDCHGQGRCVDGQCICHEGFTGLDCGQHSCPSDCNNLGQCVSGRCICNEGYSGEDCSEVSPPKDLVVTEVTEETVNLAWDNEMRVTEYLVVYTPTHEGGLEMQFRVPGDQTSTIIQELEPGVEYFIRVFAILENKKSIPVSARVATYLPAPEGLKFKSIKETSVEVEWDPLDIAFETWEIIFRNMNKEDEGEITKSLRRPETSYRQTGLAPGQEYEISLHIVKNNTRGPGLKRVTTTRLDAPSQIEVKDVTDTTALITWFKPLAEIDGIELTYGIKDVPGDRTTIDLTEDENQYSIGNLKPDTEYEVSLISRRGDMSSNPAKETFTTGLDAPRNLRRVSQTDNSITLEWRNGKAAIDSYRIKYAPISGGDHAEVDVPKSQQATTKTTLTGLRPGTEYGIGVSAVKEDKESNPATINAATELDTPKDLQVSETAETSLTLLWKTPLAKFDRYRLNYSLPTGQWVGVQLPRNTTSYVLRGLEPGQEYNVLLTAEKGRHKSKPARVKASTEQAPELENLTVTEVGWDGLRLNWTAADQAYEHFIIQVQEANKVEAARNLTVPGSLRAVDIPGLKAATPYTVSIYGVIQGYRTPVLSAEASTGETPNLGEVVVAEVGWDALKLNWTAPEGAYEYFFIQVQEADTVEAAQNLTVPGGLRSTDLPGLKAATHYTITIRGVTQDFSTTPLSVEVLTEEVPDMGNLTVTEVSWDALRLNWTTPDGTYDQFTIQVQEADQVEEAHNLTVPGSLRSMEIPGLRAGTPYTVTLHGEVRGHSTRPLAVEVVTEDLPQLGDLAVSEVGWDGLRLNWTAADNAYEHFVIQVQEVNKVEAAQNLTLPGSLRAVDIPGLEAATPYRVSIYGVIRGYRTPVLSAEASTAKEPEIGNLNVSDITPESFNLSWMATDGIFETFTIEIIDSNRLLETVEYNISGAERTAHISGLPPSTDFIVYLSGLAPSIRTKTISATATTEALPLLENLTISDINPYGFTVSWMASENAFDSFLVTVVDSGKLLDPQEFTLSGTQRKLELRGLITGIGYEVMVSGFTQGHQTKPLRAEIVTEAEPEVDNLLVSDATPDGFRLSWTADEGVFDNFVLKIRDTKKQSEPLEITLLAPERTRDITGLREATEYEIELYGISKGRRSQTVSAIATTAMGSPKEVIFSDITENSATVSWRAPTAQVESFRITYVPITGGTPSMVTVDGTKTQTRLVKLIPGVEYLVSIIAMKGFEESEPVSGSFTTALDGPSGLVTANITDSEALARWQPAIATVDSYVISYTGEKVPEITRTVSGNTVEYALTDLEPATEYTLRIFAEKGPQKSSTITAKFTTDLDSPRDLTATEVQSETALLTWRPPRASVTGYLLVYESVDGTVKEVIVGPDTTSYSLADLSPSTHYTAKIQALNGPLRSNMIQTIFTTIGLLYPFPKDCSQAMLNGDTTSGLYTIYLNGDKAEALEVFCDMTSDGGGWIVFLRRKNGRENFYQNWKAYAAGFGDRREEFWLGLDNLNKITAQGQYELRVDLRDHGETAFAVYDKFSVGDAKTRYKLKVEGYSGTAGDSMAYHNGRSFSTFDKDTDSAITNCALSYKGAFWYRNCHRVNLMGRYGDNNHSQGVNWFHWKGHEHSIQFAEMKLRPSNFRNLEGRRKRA", "test": "ELISA; plates coated with 100 nM PlGF-2, AREG or NRTN (1 h, 37 °C), blocked with 1% BSA in PBS-T; ECM proteins at increasing concentration in PBS-T with 0.1% BSA; bound ECM protein detected with HRP-conjugated antibodies; one site specific binding model; n = 3"}, "human plasma fibronectin [3]": {"target": "human plasma fibronectin (human)", "test": "ELISA; plates coated with 100 nM PlGF-2, AREG or NRTN (1 h, 37 °C), blocked with 1% BSA in PBS-T; ECM proteins at increasing concentration in PBS-T with 0.1% BSA; bound ECM protein detected with HRP-conjugated antibodies; one site specific binding model; n = 3"}, "human fibrinogen [4]": {"target": "B4", "test": "ELISA; plates coated with 100 nM PlGF-2, AREG or NRTN (1 h, 37 °C), blocked with 1% BSA in PBS-T; ECM proteins at increasing concentration in PBS-T with 0.1% BSA; bound ECM protein detected with HRP-conjugated antibodies; one site specific binding model; n = 3"}, "human vitronectin [5]": {"target": "T1, human vitronectin", "test": "ELISA; plates coated with 100 nM ECM protein in PBS (1 h, 37 °C), blocked with 1% BSA in PBS-T; PDGF-BB or IL-1Ra variants at increasing concentrations in PBS-T with 0.1% BSA, 1 h at room temperature; detected with biotinylated antibodies; one site specific binding model; n = 3"}, "human tenascin C [6]": {"target": "T2, human tenascin C", "test": "ELISA; plates coated with 100 nM ECM protein in PBS (1 h, 37 °C), blocked with 1% BSA in PBS-T; PDGF-BB or IL-1Ra variants at increasing concentrations in PBS-T with 0.1% BSA, 1 h at room temperature; detected with biotinylated antibodies; one site specific binding model; n = 3"}, "human plasma fibronectin [7]": {"target": "human plasma fibronectin (human)", "test": "ELISA; plates coated with 100 nM ECM protein in PBS (1 h, 37 °C), blocked with 1% BSA in PBS-T; PDGF-BB or IL-1Ra variants at increasing concentrations in PBS-T with 0.1% BSA, 1 h at room temperature; detected with biotinylated antibodies; one site specific binding model; n = 3"}, "human fibrinogen [8]": {"target": "B4", "test": "ELISA; plates coated with 100 nM ECM protein in PBS (1 h, 37 °C), blocked with 1% BSA in PBS-T; PDGF-BB or IL-1Ra variants at increasing concentrations in PBS-T with 0.1% BSA, 1 h at room temperature; detected with biotinylated antibodies; one site specific binding model; n = 3"}, "AREG26-38/IL-1Ra": {"target": "T3, AREG26-38/IL-1Ra (human | )", "T3 construct": "interleukin-1 receptor antagonist protein; Both the His tag and AREG26-38 are said to stand at the N-terminus; also called AREG126-138/IL-1Ra; engineered IL-1Ra; source: E. coli BL21 (DE3), pET-22b, soluble fraction, purified (Ni column)", "T3 sequence (P02671 36-866)": "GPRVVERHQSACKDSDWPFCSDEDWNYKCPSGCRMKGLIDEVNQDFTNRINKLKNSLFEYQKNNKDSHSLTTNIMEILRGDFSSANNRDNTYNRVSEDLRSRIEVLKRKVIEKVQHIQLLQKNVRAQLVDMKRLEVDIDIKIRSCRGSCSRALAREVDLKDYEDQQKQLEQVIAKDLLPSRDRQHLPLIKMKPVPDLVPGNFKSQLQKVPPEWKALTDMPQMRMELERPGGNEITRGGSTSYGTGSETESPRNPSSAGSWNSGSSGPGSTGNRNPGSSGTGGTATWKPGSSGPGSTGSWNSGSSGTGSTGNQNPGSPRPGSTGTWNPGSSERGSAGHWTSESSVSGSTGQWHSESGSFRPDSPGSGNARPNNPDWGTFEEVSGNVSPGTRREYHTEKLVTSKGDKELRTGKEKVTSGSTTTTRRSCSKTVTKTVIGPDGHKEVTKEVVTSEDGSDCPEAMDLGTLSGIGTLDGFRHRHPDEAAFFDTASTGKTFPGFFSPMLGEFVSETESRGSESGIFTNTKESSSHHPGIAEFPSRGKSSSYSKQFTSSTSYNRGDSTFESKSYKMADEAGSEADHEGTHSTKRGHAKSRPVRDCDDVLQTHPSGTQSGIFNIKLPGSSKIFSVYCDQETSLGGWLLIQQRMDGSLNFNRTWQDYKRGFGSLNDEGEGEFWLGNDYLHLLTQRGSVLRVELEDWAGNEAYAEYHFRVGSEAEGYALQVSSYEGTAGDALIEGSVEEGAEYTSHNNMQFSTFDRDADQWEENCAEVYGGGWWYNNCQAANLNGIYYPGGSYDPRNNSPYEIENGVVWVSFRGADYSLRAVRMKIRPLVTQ", "test": "ELISA; plates coated with 100 nM ECM protein in PBS (1 h, 37 °C), blocked with 1% BSA in PBS-T; PDGF-BB or IL-1Ra variants at increasing concentrations in PBS-T with 0.1% BSA, 1 h at room temperature; detected with biotinylated antibodies; one site specific binding model; n = 3"}, "AREG26-38/PDGF-BB": {"target": "T4, AREG26-38/PDGF-BB (human | )", "T4 construct": "platelet-derived growth factor subunit B; AREG26-38 at the N-terminus of PDGF-B; also called AREG126-138/PDGF-BB; engineered PDGF-BB", "T4 sequence (P02671 36-866)": "as above", "test": "ELISA; plates coated with 100 nM ECM protein in PBS (1 h, 37 °C), blocked with 1% BSA in PBS-T; PDGF-BB or IL-1Ra variants at increasing concentrations in PBS-T with 0.1% BSA, 1 h at room temperature; detected with biotinylated antibodies; one site specific binding model; n = 3"}}, "data": [{"binder": "B1", "values": [{"measurement": "Kd", "setting": "human vitronectin [1]", "result": 13.2, "unit": "nM"}, {"measurement": "Kd", "setting": "human tenascin C [2]", "result": 79.4, "unit": "nM"}, {"measurement": "Kd", "setting": "human plasma fibronectin [3]", "result": 17.2, "unit": "nM"}, {"measurement": "Kd", "setting": "human fibrinogen [4]", "result": 14.1, "unit": "nM"}]}, {"binder": "B2", "values": [{"measurement": "Kd", "setting": "human vitronectin [1]", "result": 53.1, "unit": "nM"}, {"measurement": "Kd", "setting": "human tenascin C [2]", "result": 55.7, "unit": "nM"}, {"measurement": "Kd", "setting": "human plasma fibronectin [3]", "result": 79.4, "unit": "nM"}, {"measurement": "Kd", "setting": "human fibrinogen [4]", "result": 390, "unit": "nM"}]}, {"binder": "B3", "values": [{"measurement": "Kd", "setting": "human vitronectin [5]", "result": 29.7, "unit": "nM"}, {"measurement": "Kd", "setting": "human tenascin C [6]", "result": 87.8, "unit": "nM"}, {"measurement": "Kd", "setting": "human plasma fibronectin [7]", "result": 74.2, "unit": "nM"}, {"measurement": "Kd", "setting": "human fibrinogen [8]", "result": 210, "unit": "nM"}]}, {"binder": "B4", "values": [{"measurement": "Kd", "setting": "AREG26-38/IL-1Ra", "result": 16.9, "unit": "nM"}, {"measurement": "Kd", "setting": "AREG26-38/PDGF-BB", "result": 13.9, "unit": "nM"}]}, {"binder": "B5", "values": [{"measurement": "Kd", "setting": "human vitronectin [5]", "result": 96.5, "unit": "nM"}, {"measurement": "Kd", "setting": "human tenascin C [6]", "result": 137, "unit": "nM"}, {"measurement": "Kd", "setting": "human plasma fibronectin [7]", "result": 153, "unit": "nM"}, {"measurement": "Kd", "setting": "human fibrinogen [8]", "result": 640, "unit": "nM"}]}, {"binder": "B6", "values": [{"measurement": "Kd", "setting": "human vitronectin [1]", "result": 9.3, "unit": "nM"}, {"measurement": "Kd", "setting": "human tenascin C [2]", "result": 11, "unit": "nM"}, {"measurement": "Kd", "setting": "human plasma fibronectin [3]", "result": 8.9, "unit": "nM"}, {"measurement": "Kd", "setting": "human fibrinogen [4]", "result": 7.4, "unit": "nM"}]}]}
